The subject of experiment [1] is peritoneal macrophages. Nature of the experiment: Cytokine production by LPS-stimulated peritoneal macrophages expressing TAK1-DN. Format: cell-based. The settings on record: LPS 10 μg/ml, 24 hours, TAK1-DN Tgm-derived macrophages compared with wild-type mouse-derived macrophages, FIG. 4. As to the method: (§1) Specifically, 10 ml of ice-cold PBS solution containing 0.36% sodium citrate was injected into the peritoneal cavity of a TAK1-DN-expressing transgenic mouse (TAK1-DN Tgm) or a C57BL/6 mouse (wild-type mouse) of the same weeks of age. The mouse was given a massage for 30 seconds, and then the solution was recovered from the mouse. The solution recovered was centrifuged, and the precipitated cells were resuspended in RPMI1640 (GIBCO-BRL) containing 10% FBS (GIBCO-BRL). The cells were plated in wells at a cell density of 5×10^4/well. The cells were cultured at 37° C. for 2 hours, and floating cells were removed by washing with media. Cells adsorbed on the culture plate were used as peritoneal macrophages.
(§2) LPS, at a final concentration of 10 μg/ml, or IL-1α (Genzyme), at a final concentration of 10 ng/ml, was added to the above-prepared peritoneal macrophages, and the cells were further cultured for 24 hours. The culture supernatant was recovered. Then, the amounts of IL-1β in the culture supernatant of LPS-stimulated macrophages and IL-6 in the culture supernatant of IL-1α-stimulated macrophages were assayed by ELISA kits (Genzyme).

The test system of experiment [2] is IκBα degradation by proteasome (NFκB activation). Put plainly: IκBα degradation in TAK1-DN expressing peritoneal macrophages stimulated by LPS and IL-1α (Western blot). Format: cell-based, mouse. The note with it: 30 and 60 minutes, TAK1-DN Tgm-derived macrophages, FIG. 6. As to the method: The macrophages derived from wild-type mice and from TAK1-DN Tgm, which were prepared as described above, were stimulated by LPS or IL-1, and the time course of degradation of IκBα by proteasome was monitored (0, 30, and 60 minutes). Specifically, the peritoneal macrophages were cultured in wells of a 96-well plate at a cell density of 1×10^6/well. LPS (1 μg/ml) or IL-1α (10 ng/ml) was added to the culture in the presence or absence of proteasome inhibitor MG132 (40 μM). The cells were harvested after 30 or 60 minutes.
The cells were washed with PBS (−), and then a lysis buffer was added thereto for the preparation of cell lysate. An aliquot of each lysate corresponding to about 2×10^5 cells was subjected to gel electrophoresis by 9% SDS-PAGE. The fractionated proteins were blotted onto a nitrocellulose membrane and then incubated with anti-IκBα antibody (SantaCruz) as a primary antibody for 1.5 hours. After wash, horseradish peroxidase-conjugated goat anti-rabbit antibody was used as a secondary antibody. After the reaction of the secondary antibody, the reaction product was detected by using ECL (Amersham).
(In general: Immunoblotting shows a protein as a band on a membrane.)

For another experiment, the target named is T1, TAB1 (Homo sapiens, UniProt Q15750).
T1 construct: expressed in transfected cells; host or cells: CHO cells transfected with pVP16-C68
T1 sequence (Q15750 437-504): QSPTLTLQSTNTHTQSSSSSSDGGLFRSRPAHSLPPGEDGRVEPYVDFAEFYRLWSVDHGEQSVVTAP
Nature of the experiment: Animal cell two-hybrid assay in CHO cells (luciferase reporter). Format: cell-based, hamster. The settings on record: pM-TAK1DN with pVP16-C68 (TAB1C68), 72 hours, FIG. 7. The text has this:
The animal cell two-hybrid system (Dang et al., (1991) Mol. Cell. Biol. 11, 954-962) using TAB1 peptide and TAK1 peptide was used to analyze whether or not a peptide (TAK1-DN) from Glu at amino acid 77 to Gln at amino acid 303 in the TAK1 peptide of SEQ ID NO: 2 is capable of inhibiting the binding between TAK1 peptide and TAB1 peptide and further capable of inhibiting TAK1 peptide activation in animal cells.
First, each of genes encoding full-length TAK1 and TAK1-DN was ligated with the gene encoding GAL4 DNA-binding domain (GAL4-BD) to prepare an expression vector. The gene encoding full-length TAK1 was obtained from yeast two-hybrid expression plasmid pBTMHu11F (Shibuya H. et al., (1996) 272, 1179-1182) by digesting it with restriction enzymes EcoRI and PstI. Subsequently, the gene was ligated between EcoRI and PstI sites of an expression vector pM (CLONTECH) containing the GAL4-BD gene to obtain an animal cell two-hybrid expression plasmid pM-TAK1. […]
The culture further continued for 72 hours, and then luciferase activities in each cell extract were assayed by using Dual-Luciferase™ Reporter Assay System (Promega). […] The efficiency of gene introduction was normalized by using measured values for the activity of Renilla luciferase derived from the introduced pRL-SV40.

Experiment [3] deals with peritoneal macrophages. Nature of the experiment: IL-6 production by IL-1α-stimulated peritoneal macrophages expressing TAK1-DN. The settings on record: IL-1α 10 ng/ml, 24 hours; TAK1-DN Tgm-derived macrophages compared with wild-type mouse-derived macrophages; ELISA; FIG. 5. Format: cell-based. The procedure:
as §1, §2
(In general: ELISA stands for enzyme-linked immunosorbent assay.)

B1: TAK1-DN: TAB1-binding region of TAK1, amino acid 77 Glu to amino acid 303 Gln of SEQ ID NO: 2; dominant negative inhibitor (protein, listed as Homo sapiens)
chain: ELRQLSRVNHPNIVKLYGACLNPVCLVMEYAEGGSLYNVLHGAEPLPYYTAAHAMSWCLQCSQGVAYLHSMQPKALIHRDLKPPNLLLVAGGTVLKICDFGTACDIQTHMTNNKGSAAWMAPEVFEGSNYSEKCDVFSWGIILWEVITRRKPFDEIGGPAFRIMWAVHNGTRPPLIKNLPKPIESLMTRCWSKDPSQRPSMEEIVKIMTHLMRYFPGADEPLQYPCQ
For the molecule B1, in the experiment on peritoneal macrophages [1] (ELISA), the “induction of production of IL-1β” value was “significantly inhibited”. For the same molecule, in the experiment on peritoneal macrophages [1], the “induction of production of IL-6” value was “significantly inhibited” and the “induction of production of TNF” value is “significantly inhibited”. Further, in experiment [2] (IL-1α 10 ng/ml), the “degradation of IκBα” value was “no remarkable degradation of IκBα”. Moreover, in experiment [2] (LPS 1 μg/ml), the “degradation of IκBα” value is “no remarkable degradation of IκBα”. In the experiment with TAB1, the “luciferase activity (binding to TAB1)” value is “capable of binding to TAB1”. Moreover, the “induction of IL-6 production by IL-1 stimulation” value in the experiment on peritoneal macrophages [3] is reported as “significantly inhibited”.

(Values after patent US8105799B2, “Methods of screening compounds inhibiting signal transduction through inflammatory cytokines” (Chugai Seiyaku Kabushiki Kaisha, priority 1998, dated 2012).)
